The values that follow come from US20180251562A1 (XOMA US, published 2018).

Where a chain is given by its changes, count along the chain named.

Assay [1] deals with T1, human insulin receptor (INSR) on CHOK1 cells (human, UniProt P06213 28-1382).
T1 construct: whole, on cells; CHOK1 cells over-expressing human INSR; also called human INSR; hINSR
The assay can be described thus: binding to CHO cells expressing human INSR; 2nd column headed CHO Human INSR; quantity and unit not printed [cont'd].

Assay [2] has as its target T2, rat insulin receptor (INSR) on CHOK1 cells (rat, UniProt P15127 27-1383).
T2 construct: whole, on cells; CHOK1 cells over-expressing rat INSR; also called rat INSR ortholog
The assay can be described thus: binding to CHO cells expressing rat INSR; 2nd column headed CHO Rat INSR (the 1st column's numbers with more digits); quantity and unit not printed [cont'd].

Assay [3] has as its target T3, cynomolgus insulin receptor (INSR) on CHOK1 cells (cyno, UniProt A0A7N9D6H3 48-1390).
T3 construct: whole, on cells; CHOK1 cells over-expressing cyno INSR; also called cynomologous INSR ortholog; monkey INSR
Description: binding to CHO cells expressing cyno INSR; 1st column headed CHO Cyno INSR; quantity and unit not printed [cont'd].

The target of assay [4] is T3, cynomolgus insulin receptor (INSR) on …. Description: binding to CHO cells expressing cyno INSR; 2nd column headed CHO Cyno INSR (same numbers as the 1st); quantity and unit not printed [cont'd].
Assay [5] deals with T4, Recombinant human insulin receptor (B form) ECD (R&D Systems) (human, UniProt P06213 28-956, limits assumed).
T4 construct: extracellular domain; also called INSR-ECD; h-INSR
The assay can be described thus: SPR (Biacore 2000), INSR-ECD immobilised; relative to 247.2.018 Fab.

For assay [6], the target named is T1, human insulin receptor (INSR) on CHOK1 …. Description: binding to CHO cells expressing human INSR; 1st column headed CHO Human INSR; quantity and unit not printed [cont'd].
Assay [7] deals with T4, Recombinant human insulin receptor (B …). The assay can be described thus: SPR (Biacore 2000), INSR-ECD immobilised, purified Fab injected, 1:1 fit [cont'd].
Assay [8] concerns the target T2, rat insulin receptor (INSR) on CHOK1 …. Description: binding to CHO cells expressing rat INSR; 1st column headed CHO Rat INSR; quantity and unit not printed [cont'd].
The target of assay [9] is T4, Recombinant human insulin receptor (B …). Description: SPR (Biacore 2000), INSR-ECD immobilised, purified Fab injected, 1:1 fit. A general note: SPR reads the build-up and loss of mass on a sensor chip optically.
The target in assay [10] is T1, human insulin receptor (INSR) on CHOK1 …. Description: cell-based or functional assay.
For assay [11] the target is unchanged. The assay can be described thus: cell-based or functional assay. This is another data set of the same source.
The target is the same in assay [12]. Description: cell-based or functional assay. This is another data set of the same source.
For assay [13], the target named is T5, minipig insulin receptor (INSR) on CHOK1 cells (minipig, UniProt F1SCL0 28-758; F1SCL0 763-1382). The assay can be described thus: cell-based or functional assay.
Assay [14] concerns the target T3, cynomolgus insulin receptor (INSR) on …. The assay can be described thus: cell-based or functional assay.
In assay [15] the target is T2, rat insulin receptor (INSR) on CHOK1 …. The assay can be described thus: cell-based or functional assay.
Assay [16] concerns the target T1, human insulin receptor (INSR) on CHOK1 …. The assay can be described thus: flow cytometry on CHOK1 cells expressing the INSR ortholog; IgG, anti-human IgG APC detection. For orientation: Flow cytometry measures light scatter and fluorescence of single cells or particles in a stream.
The target of assay [17] is T5, minipig insulin receptor (INSR) on …. The assay is described as above.
The target in assay [18] is T3, cynomolgus insulin receptor (INSR) on …. The description is as above.
The target in assay [19] is T2, rat insulin receptor (INSR) on CHOK1 …. The assay is described as above.
Assay [20] concerns the target T6, solubilized human INSR (B isoform) from CHO-hINSR-B cells, without insulin (human, UniProt P06213 28-1382).
T6 construct: mature; Detergent-solubilized full-length receptor in cell lysate, captured on the SPR chip by its carboxy-terminal part; also called solubilized INSR
The assay can be described thus: SPR (ProteOn XPR36), solubilized INSR captured by CT-3 mAb, antibody injected, no insulin.

Assay [21] deals with T6, solubilized human INSR (B isoform) from …. The assay can be described thus: SPR (ProteOn XPR36), solubilized INSR-B captured by CT-3 mAb, Fab injected, -insulin.
The target in assay [22] is T1, human insulin receptor (INSR) on CHOK1 …. The assay can be described thus: flow cytometry on CHOK1 cells expressing the INSR ortholog; Fab, anti-human kappa FITC detection.
Assay [23] has as its target T5, minipig insulin receptor (INSR) on …. Described as above.
Assay [24] concerns the target T3, cynomolgus insulin receptor (INSR) on …. The assay is described as above.
In assay [25] the target is T2, rat insulin receptor (INSR) on CHOK1 …. The description is as above.
In assay [26] the target is T1, human insulin receptor (INSR) on CHOK1 …. Description: flow cytometry on CHO cells expressing human INSR.

B1: RHF.15.05896.075 (Fab, V domains shown)
VH: EVQLVETGGGVVQPGRSLRLSCAASGFKFSSYAMHWVRQAPGKGLEWVAVISYSGSNKYYADSVKGRFTISRDNSKNTLYLQMNSLRAEDTAVYYCARHEWGFGYDYWGQGTTVTVSS
VL: DVVMTQSPLSLPVTLGQPASISCRSSQSLVYGDGNTYLNWFQQRPGQSPRRLIYKVSNRDSGVPDRFSGSGSGTEFTLKISRVEAEDVGVYFCMQGTYWPGTFGGGTKLEIKR
notes: Untagged Fab
With B1, the “CHO Human INSR” value in assay [1] amounted to 0.791; in assay [6] it was 1.06. The “CHO Rat INSR” value in assay [2] and in assay [8] was 0.621 each time. Besides, the “CHO Cyno INSR” value in [3] and in [4] was 0.728 each time. In addition, the “Fold KD Improvement” value in assay [5] is 7 fold. Besides, in [7], the koff is 0.00045 s⁻¹. The on-rate constant (kon) in assay [7] came out at 320000 M⁻¹ s⁻¹. Moreover, the Kd in [9] turned out to be 1.4 nM. Further, the “Potency EC50 value [nM] [cont'd]” value in assay [10] was determined as 1.16 nM.

B2: XPA.15.247 parent antibody (IgG) (antibody, V domains shown)
VH: B1 VH with K28T, S54D, Y105M, Y107V
VL: DVVMTQSPLSLSVTLGQPASISCRSSLSLVYGDENTYLNWFQQRPGQSPRRLLYKVSDRDSGVPDRFSGSGSGTDFTLKISRVEADDVGVYYCMQGTHWPYTFGQGTKLEIKR
notes: Tested as IgG; also called XPA.15.247 antibody
In the case of B2, the “EC50, pAKT assay at the EC80 concentration of insulin” value in assay [11] came out at 34.7 nM. The “EC50 (nM), pAKT signaling assay” value in [12] worked out at 34.5 nM; in assay [13], 20.7 nM; in [14], 30.7 nM; in assay [15], 46.2 nM. For the same molecule, the EC50 in [16] stood at 8.8 nM; in assay [17] it was 12 nM; in assay [18], 13.6 nM; in assay [19], 9.7 nM. Binding in assay [20] was put at a Kd of 10 nM. The same molecule registered a koff in assay [20] of 0.000471 s⁻¹. The molecule further displayed a kon in assay [20] of 38500 M⁻¹ s⁻¹.

B3: XPA.15.247.2.011 Fab (Fab, V domains shown)
VH: B1 VH with K28T, Y105F
VL: B2 VL with S12P, L27H, E34G, Q42H, L53I, D58N, S68A, V88F, Y91F
notes: Fab; also called XPA.15.247.011
As for B3, in [21], the Kd came out at 10 nM. This molecule came in with a koff in [21] of 0.000705 s⁻¹. Moreover, the kon in assay [21] is 70400 M⁻¹ s⁻¹. For the same molecule, the concentration for a half-maximal effect (EC50) in assay [22] was 2.7 nM; in [23] it was 5.8 nM; in assay [24], 17.2 nM; in assay [25] it was 1.9 nM. Further, the “EC50 (nM), pAKT signaling assay” value in [12] was 5 nM; in assay [13], 4.4 nM; in assay [14], 6.2 nM; in [15], 7.8 nM.

B4: XPA.15.247.2.018 IgG (antibody, V domains shown)
VH: B1 VH with K28T, Y105F
VL: B1 VL
notes: Tested as IgG; also called XPA.15.247.2.018 antibody
Turning to B4, the “EC50 (read off the curve)” value in assay [26] is roughly 0.8 µg/mL. For the same molecule, the “EC50 (nM), pAKT signaling assay” value was 0.3 nM in assay [12], 0.3 nM in assay [13], 0.2 nM in [14] and 0.4 nM in assay [15]. Also, the EC50 in assay [16] worked out at 0.3 nM; in assay [17] it was 0.5 nM; in assay [18], 1.4 nM; in [19] it was 0.4 nM. Also, in [20], binding was put at a Kd of 6.6 nM.

B5: XPA.15.247.2.011 IgG (antibody, V domains shown)
VH: B1 VH with K28T, Y105F
VL: B2 VL with S12P, L27H, E34G, Q42H, L53I, D58N, S68A, V88F, Y91F
notes: Tested as IgG; also called XPA.15.247.011
On to B5, for which the “EC50 (nM), pAKT signaling assay” value is 1.5 nM in assay [12], 1.7 nM in assay [13], 1.3 nM in assay [14] and 3.1 nM in [15]. The EC50 in assay [16] was 1 nM; in assay [17], 1.5 nM; in assay [18], 3.3 nM; in assay [19] it was 1.3 nM.

B6: XPA.15.247.2.014 Fab (Fab, V domains shown)
VH: B1 VH with K28T, Y105F
VL: B1 VL with N58K, E75D, F92Y, G101M
notes: Fab; also called XPA.15.247.014
In assay [21], B6 returned a Kd of 3.7 nM. In assay [21], this molecule registered a koff of 0.000705 s⁻¹. For the same molecule, in [21], the kon was found to be 137000 M⁻¹ s⁻¹. Besides, the EC50 in assay [22] turned out to be 1.8 nM; in assay [23], 2.9 nM; in assay [24] it was 10.2 nM; in [25] it was 1.7 nM. In addition, the “EC50 (nM), pAKT signaling assay” value in assay [12] was 9.6 nM; in assay [13], 8.4 nM; in [14], roughly 15.1 nM; in assay [15], roughly 15.6 nM.

B7: XPA.15.247.2.014 IgG (antibody, V domains shown)
VH: B1 VH with K28T, Y105F
VL: B1 VL with N58K, E75D, F92Y, G101M
notes: Tested as IgG; also called XPA.15.247.014
Take B7: the “EC50 (nM), pAKT signaling assay” value in assay [12] is 2.1 nM; in assay [13], 2.3 nM; in assay [14], 1.7 nM; in [15] it was 4.2 nM. Also, the EC50 in assay [16] came to 0.7 nM; in [17] it was 0.9 nM; in assay [18] it was 1.1 nM; in [19] it was 0.7 nM.

As usually defined, the koff is the first-order rate constant of dissociation. Broadly, the kon is a measure of how fast the partners come together. One may read the Kd as the free concentration of one partner at which half of the binding sites on the other are occupied at equilibrium, for simple one-to-one binding. In general, EC50 refers to the midpoint of the concentration-response curve. A high value points to a need for much substance. What is called EC50 (read off the curve) is the concentration at which the effect is half-maximal. High values mean lower potency in that assay, low ones higher potency in that assay.
